Results reported in patent US20200087373A1 (UNIVERSITY OF COPENHAGEN, published 2020).
Ends that are not written are not given here. * marks the point of attachment. C16 diacid = O=C(O)CCCCCCCCCCCCCCC(=O)*; C12 diacid = O=C(O)CCCCCCCCCCC(=O)*; Lauroyl = CCCCCCCCCCCC(=O)*

T1: human GIP receptor (human, UniProt P48546 22-466)
T1 sequence (looked up): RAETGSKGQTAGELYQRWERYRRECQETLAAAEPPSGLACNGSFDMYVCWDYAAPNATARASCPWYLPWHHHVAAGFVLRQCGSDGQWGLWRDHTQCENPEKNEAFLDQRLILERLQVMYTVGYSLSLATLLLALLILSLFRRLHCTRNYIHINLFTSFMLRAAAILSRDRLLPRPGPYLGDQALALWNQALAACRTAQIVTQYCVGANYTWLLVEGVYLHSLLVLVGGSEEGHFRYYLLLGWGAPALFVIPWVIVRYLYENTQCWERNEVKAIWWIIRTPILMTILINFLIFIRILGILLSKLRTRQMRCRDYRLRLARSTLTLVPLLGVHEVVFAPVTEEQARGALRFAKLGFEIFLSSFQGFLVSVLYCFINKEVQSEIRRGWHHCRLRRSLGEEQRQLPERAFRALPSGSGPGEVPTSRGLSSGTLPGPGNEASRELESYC

B1: AT158 [hGIP(3-30)NH2[H18K]-C16diacid/18] (peptide)
peptide: EGTFISDYSIAMDKIK(C16 diacid)QQDFVNWLLAQK-NH2
modifications: N-terminus assumed
SMILES: CC[C@H](C)[C@H](NC(=O)[C@H](CO)NC(=O)[C@H](Cc1ccc(O)cc1)NC(=O)[C@H](CC(=O)O)NC(=O)[C@H](CO)NC(=O)[C@@H](NC(=O)[C@H](Cc1ccccc1)NC(=O)[C@@H](NC(=O)CNC(=O)[C@@H](N)CCC(=O)O)[C@@H](C)O)[C@@H](C)CC)C(=O)N[C@@H](C)C(=O)N[C@@H](CCSC)C(=O)N[C@@H](CC(=O)O)C(=O)N[C@@H](CCCCN)C(=O)N[C@H](C(=O)N[C@@H](CCCCNC(=O)CCCCCCCCCCCCCCC(=O)O)C(=O)N[C@@H](CCC(N)=O)C(=O)N[C@@H](CCC(N)=O)C(=O)N[C@@H](CC(=O)O)C(=O)N[C@@H](Cc1ccccc1)C(=O)N[C@H](C(=O)N[C@@H](CC(N)=O)C(=O)N[C@@H](Cc1c[nH]c2ccccc12)C(=O)N[C@@H](CC(C)C)C(=O)N[C@@H](CC(C)C)C(=O)N[C@@H](C)C(=O)N[C@@H](CCC(N)=O)C(=O)N[C@@H](CCCCN)C(N)=O)C(C)C)[C@@H](C)CC
B2: AT148 [hGIP(3-30)NH2-C12/3] (peptide)
peptide: Lauroyl-EGTFISDYSIAMDKIHQQDFVNWLLAQK-NH2
B3: AT153 [hGIP(3-30)NH2[H18R; K30R]-C12/16] (peptide)
peptide: EGTFISDYSIAMDK(Lauroyl)IRQQDFVNWLLAQR-NH2
modifications: N-terminus assumed
SMILES: CCCCCCCCCCCC(=O)NCCCC[C@H](NC(=O)[C@H](CC(=O)O)NC(=O)[C@H](CCSC)NC(=O)[C@H](C)NC(=O)[C@@H](NC(=O)[C@H](CO)NC(=O)[C@H](Cc1ccc(O)cc1)NC(=O)[C@H](CC(=O)O)NC(=O)[C@H](CO)NC(=O)[C@@H](NC(=O)[C@H](Cc1ccccc1)NC(=O)[C@@H](NC(=O)CNC(=O)[C@@H](N)CCC(=O)O)[C@@H](C)O)[C@@H](C)CC)[C@@H](C)CC)C(=O)N[C@H](C(=O)N[C@@H](CCCNC(=N)N)C(=O)N[C@@H](CCC(N)=O)C(=O)N[C@@H](CCC(N)=O)C(=O)N[C@@H](CC(=O)O)C(=O)N[C@@H](Cc1ccccc1)C(=O)N[C@H](C(=O)N[C@@H](CC(N)=O)C(=O)N[C@@H](Cc1c[nH]c2ccccc12)C(=O)N[C@@H](CC(C)C)C(=O)N[C@@H](CC(C)C)C(=O)N[C@@H](C)C(=O)N[C@@H](CCC(N)=O)C(=O)N[C@@H](CCCNC(=N)N)C(N)=O)C(C)C)[C@@H](C)CC
B4: AT149 [hGIP(3-30)NH2[H18R; K30R]-C12diacid/3] (peptide)
peptide: {C12 diacid}-EGTFISDYSIAMDKIRQQDFVNWLLAQR-NH2
SMILES: CC[C@H](C)[C@H](NC(=O)[C@H](CO)NC(=O)[C@H](Cc1ccc(O)cc1)NC(=O)[C@H](CC(=O)O)NC(=O)[C@H](CO)NC(=O)[C@@H](NC(=O)[C@H](Cc1ccccc1)NC(=O)[C@@H](NC(=O)CNC(=O)[C@H](CCC(=O)O)NC(=O)CCCCCCCCCCC(=O)O)[C@@H](C)O)[C@@H](C)CC)C(=O)N[C@@H](C)C(=O)N[C@@H](CCSC)C(=O)N[C@@H](CC(=O)O)C(=O)N[C@@H](CCCCN)C(=O)N[C@H](C(=O)N[C@@H](CCCNC(=N)N)C(=O)N[C@@H](CCC(N)=O)C(=O)N[C@@H](CCC(N)=O)C(=O)N[C@@H](CC(=O)O)C(=O)N[C@@H](Cc1ccccc1)C(=O)N[C@H](C(=O)N[C@@H](CC(N)=O)C(=O)N[C@@H](Cc1c[nH]c2ccccc12)C(=O)N[C@@H](CC(C)C)C(=O)N[C@@H](CC(C)C)C(=O)N[C@@H](C)C(=O)N[C@@H](CCC(N)=O)C(=O)N[C@@H](CCCNC(=N)N)C(N)=O)C(C)C)[C@@H](C)CC
B5: AT154 [hGIP(3-30)NH2-C12/16] (peptide)
peptide: EGTFISDYSIAMDK(Lauroyl)IHQQDFVNWLLAQK-NH2

Target: T1, human GIP receptor
Assay: cell-based or functional assay

Row | Binder | cAMP agonism, EC50 (log) | cAMP agonism, Emax | cAMP agonism, nM (EC50) | cAMP antagonism, log (IC50) | cAMP antagonism, nM (IC50)
1 | B1 | -8.5 log M | 6% | 3.1 nM | -8.3 log M | 5 nM
2 | B2 | -7.9 log M | 43% | 13 nM |  | 
3 | B3 |  | 0% |  | -6.7 log M | 187 nM
4 | B4 |  | 50% |  |  | 
5 | B5 |  | 0% |  | -7.2 log M | 63 nM
